Test results: publication PMC10231317

What was measured:
Assay in all cases: native gel or EMSA
[1] = biological target: H3K18Cub nucleosome core particle (UniProt P68431)
[2] = biological target: H3K23Cub nucleosome core particle (UniProt P68431)
[3] = biological target: unmodified nucleosome core particle (recombinant H3, H2A, H2B, H4 octamer on He601 DNA) (UniProt P68431)
[4] = biological target: H3K18CubK23Cub nucleosome core particle (UniProt P68431)

Kd [1]: 116 nM
percent of NCP shifted at 250 nM mDNMT1 [1]: 70%
Kd [2]: 136 nM
percent of NCP shifted at 250 nM mDNMT1 [2]: 70%
Kd [3]: 193 nM
Kd [4]: 13 nM
Substance: N-terminal truncated mouse DNMT1 (residues 291–1620) (from UniProt P13864 291-1620) (enzyme)
